Legend:
hPUF_MT(905A) = hPUF_MT(905A) (UniProt Q14671 SEQ:1-349, F905A); assay: EMSA; not significantly affected; conditions: tags: MBP; label: Alexa680 at 5' and 3'
Procedure: (§1) An RNA probe (OTS-1511) containing a target sequence fluorescence-labeled with Alexa680 at both ends thereof was synthesized.
(§2) Each purified protein was diluted to a desired concentration with Binding Buffer, mixed with a binding buffer and Ribonuclease Inhibitor, Cloned (Invitrogen), and then, mixed with the RNA probe at a final concentration of 0.5 nM. […] A binding reaction was performed at 4° C. for 30 min. Subsequently, the solution was gently mixed by pipetting. A binding reaction was performed again at 4° C. for […].

hPUF_MT(R4→R6) = target: T1, hPUF_MT(R4→R6) (UniProt Q14671 SEQ:1-349); assay: EMSA; comparable to WT; conditions: label: Alexa680 at 5' and 3'
T1 chain: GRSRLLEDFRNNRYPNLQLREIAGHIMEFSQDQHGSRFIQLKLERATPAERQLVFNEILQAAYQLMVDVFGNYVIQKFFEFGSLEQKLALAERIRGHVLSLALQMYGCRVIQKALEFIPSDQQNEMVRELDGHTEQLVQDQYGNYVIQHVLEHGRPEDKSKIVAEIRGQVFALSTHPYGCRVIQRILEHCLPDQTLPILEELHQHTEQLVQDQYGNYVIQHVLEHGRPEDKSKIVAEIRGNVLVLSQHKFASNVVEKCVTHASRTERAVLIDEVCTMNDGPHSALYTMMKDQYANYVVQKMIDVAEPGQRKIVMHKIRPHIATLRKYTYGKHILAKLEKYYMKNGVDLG
Procedure: as §1, §2

hPUF_MT(R3→R5) = target: T2, hPUF_MT(R3→R5) (UniProt Q14671 SEQ:1-349); assay: EMSA; comparable to WT; conditions: label: Alexa680 at 5' and 3'
T2 chain: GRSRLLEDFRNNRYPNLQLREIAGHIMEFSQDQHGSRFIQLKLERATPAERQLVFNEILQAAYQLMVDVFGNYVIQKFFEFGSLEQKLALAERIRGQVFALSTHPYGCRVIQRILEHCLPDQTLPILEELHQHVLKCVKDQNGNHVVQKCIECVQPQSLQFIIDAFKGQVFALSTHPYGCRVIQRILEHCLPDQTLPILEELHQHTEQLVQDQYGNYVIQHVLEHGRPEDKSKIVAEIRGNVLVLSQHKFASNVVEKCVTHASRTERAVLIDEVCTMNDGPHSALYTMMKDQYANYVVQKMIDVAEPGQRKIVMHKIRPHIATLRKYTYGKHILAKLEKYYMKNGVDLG
Procedure: as §1, §2

[1] = target: T3, hPUF_MT(R7_S12N,E16Q, R3→R5, R4→R6) (R7 repeat S12N,E16Q); assay: EMSA; binds U exclusively; conditions: label: Alexa680 at 5' and 3'
T3 chain: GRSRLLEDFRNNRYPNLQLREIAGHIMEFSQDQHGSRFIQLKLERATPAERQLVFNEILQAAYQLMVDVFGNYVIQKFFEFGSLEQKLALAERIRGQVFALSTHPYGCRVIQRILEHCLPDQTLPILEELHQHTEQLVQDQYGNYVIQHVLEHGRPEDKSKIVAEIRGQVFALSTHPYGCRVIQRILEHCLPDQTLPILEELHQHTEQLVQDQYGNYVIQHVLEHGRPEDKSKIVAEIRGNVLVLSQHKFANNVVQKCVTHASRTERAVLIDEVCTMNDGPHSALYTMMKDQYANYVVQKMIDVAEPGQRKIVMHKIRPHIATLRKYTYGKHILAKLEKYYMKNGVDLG

## CCAGAAUUGUAUAUAUUCG (ssRNA) [OTS-1511]
hPUF_MT(905A)
  binding result: binds
hPUF_MT(R4→R6)
  binding result: binds
hPUF_MT(R3→R5)
  binding result: binds
[1]
  binding result: no binding

— patent US11472855, “RNA-binding protein” (Panitch Schwarze Belisario & Nadel LLP)
